Reference: patent publication US20240270846A1 (published 2024)

Target: T1, CD3 epsilon homodimer protein (UniProt P07766 23-126)
T1 construct: construct not described; homodimer as printed; also called CD3 (CD3 epsilon)
Test: SPR Biacore T200, CD3 epsilon homodimer immobilized; vs unaltered GLS3000;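 note: antibody variants flowed as analyte over CD3 epsilon homodimer amine-coupled to a CM4 chip, at 25 °C in HBS-EP+ running buffer, fitted with Biacore T200 Evaluation Software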

T1 sequence (P07766 23-126): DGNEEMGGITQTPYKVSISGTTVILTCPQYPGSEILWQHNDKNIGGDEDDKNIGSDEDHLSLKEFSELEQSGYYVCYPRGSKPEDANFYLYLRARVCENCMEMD

Binder	KD ratio to GLS3000 (Affinity up)
GLS3000 S56A (Kabat) L chain altered form, one-arm antibody with CE115HA000 (antibody, human IgG1, kappa, L234A L235A, N297A, name in Kabat numbering, one-arm antibody) heavy: QVQLVESGGGVVQPGRSLRLSCAASGFTFSNAWMHWVRQAPGKGLEWVAQIKAKSNNYATYYAESVKGRFTISRDDSKNSLYLQMNSLKTEDTAVYYCRYVHYGAYYGVDAWGQGTTVTVSSASTKGPSVFPLAPSSKSTSGGTAALGCLVKDYFPEPVTVSWNSGALTSGVHTFPAVLQSSGLYSLSSVVTVPSSSLGTQTYICNVNHKPSNTKVDKKVEPKSCDKTHTCPPCPAPEAAGGPSVFLFPPKPKDTLMISRTPEVTCVVVDVSHEDPEVKFNWYVDGVEVHNAKTKPREEQYASTYRVVSVLTVLHQDWLNGKEYKCKVSNKALPAPIEKTISKAKGQPREPQVYTLPPSRCELTKNQVSLSCAVKGFYPSDIAVEWESNGQPENNYKTTPPVLDSDGSFFLVSKLTVDKSRWQQGNVFSCSVMHEALHNHYTQKSLSLSPDYKDDDDK EPKSSDKTHTCPPCPAPELLGGPSVFLFPPKPKDTLMISRTPEVTCVVVDVSHEDPEVKFNWYVDGVEVHNAKTKPREEQYNSTYRVVSVLTVLHQDWLNGKEYKCKVSNKALPAPIEKTISKAKGQPREPQVCTLPPSRDELTKNQVSLWCLVKGFYPSDIAVEWESNGQPENNYKTTPPVLDSDGSFFLYSKLTVDKSRWQQGNVFSCSVMHEALHNRYTQKSLSLSP light: DIVMTQSPLSLPVTPGEPASISCRSSQSLVHSNRNTYLHWYQQKPGQAPRLLIYKVSNRFAGVPDRFSGSGSGTDFTLKISRVEAEDVGVYYCGQGTQVPYTFGQGTKLEIKRTVAAPSVFIFPPSDEQLKSGTASVVCLLNNFYPREAKVQWKVDNALQSGNSQESVTEQDSKDSTYSLSSTLTLSKADYEKHKVYACEVTHQGLSSPVTKSFNRGEC	1.18
GLS3000 V27cD (Kabat) L chain altered form, one-arm antibody with CE115HA000 (antibody, human IgG1, kappa, L234A L235A, N297A, name in Kabat numbering, one-arm antibody) heavy: QVQLVESGGGVVQPGRSLRLSCAASGFTFSNAWMHWVRQAPGKGLEWVAQIKAKSNNYATYYAESVKGRFTISRDDSKNSLYLQMNSLKTEDTAVYYCRYVHYGAYYGVDAWGQGTTVTVSSASTKGPSVFPLAPSSKSTSGGTAALGCLVKDYFPEPVTVSWNSGALTSGVHTFPAVLQSSGLYSLSSVVTVPSSSLGTQTYICNVNHKPSNTKVDKKVEPKSCDKTHTCPPCPAPEAAGGPSVFLFPPKPKDTLMISRTPEVTCVVVDVSHEDPEVKFNWYVDGVEVHNAKTKPREEQYASTYRVVSVLTVLHQDWLNGKEYKCKVSNKALPAPIEKTISKAKGQPREPQVYTLPPSRCELTKNQVSLSCAVKGFYPSDIAVEWESNGQPENNYKTTPPVLDSDGSFFLVSKLTVDKSRWQQGNVFSCSVMHEALHNHYTQKSLSLSPDYKDDDDK EPKSSDKTHTCPPCPAPELLGGPSVFLFPPKPKDTLMISRTPEVTCVVVDVSHEDPEVKFNWYVDGVEVHNAKTKPREEQYNSTYRVVSVLTVLHQDWLNGKEYKCKVSNKALPAPIEKTISKAKGQPREPQVCTLPPSRDELTKNQVSLWCLVKGFYPSDIAVEWESNGQPENNYKTTPPVLDSDGSFFLYSKLTVDKSRWQQGNVFSCSVMHEALHNRYTQKSLSLSP light: DIVMTQSPLSLPVTPGEPASISCRSSQSLDHSNRNTYLHWYQQKPGQAPRLLIYKVSNRFSGVPDRFSGSGSGTDFTLKISRVEAEDVGVYYCGQGTQVPYTFGQGTKLEIKRTVAAPSVFIFPPSDEQLKSGTASVVCLLNNFYPREAKVQWKVDNALQSGNSQESVTEQDSKDSTYSLSSTLTLSKADYEKHKVYACEVTHQGLSSPVTKSFNRGEC	3.21
GLS3000 V27cP (Kabat) L chain altered form, one-arm antibody with CE115HA000 (antibody, human IgG1, kappa, L234A L235A, N297A, name in Kabat numbering, one-arm antibody) heavy: QVQLVESGGGVVQPGRSLRLSCAASGFTFSNAWMHWVRQAPGKGLEWVAQIKAKSNNYATYYAESVKGRFTISRDDSKNSLYLQMNSLKTEDTAVYYCRYVHYGAYYGVDAWGQGTTVTVSSASTKGPSVFPLAPSSKSTSGGTAALGCLVKDYFPEPVTVSWNSGALTSGVHTFPAVLQSSGLYSLSSVVTVPSSSLGTQTYICNVNHKPSNTKVDKKVEPKSCDKTHTCPPCPAPEAAGGPSVFLFPPKPKDTLMISRTPEVTCVVVDVSHEDPEVKFNWYVDGVEVHNAKTKPREEQYASTYRVVSVLTVLHQDWLNGKEYKCKVSNKALPAPIEKTISKAKGQPREPQVYTLPPSRCELTKNQVSLSCAVKGFYPSDIAVEWESNGQPENNYKTTPPVLDSDGSFFLVSKLTVDKSRWQQGNVFSCSVMHEALHNHYTQKSLSLSPDYKDDDDK EPKSSDKTHTCPPCPAPELLGGPSVFLFPPKPKDTLMISRTPEVTCVVVDVSHEDPEVKFNWYVDGVEVHNAKTKPREEQYNSTYRVVSVLTVLHQDWLNGKEYKCKVSNKALPAPIEKTISKAKGQPREPQVCTLPPSRDELTKNQVSLWCLVKGFYPSDIAVEWESNGQPENNYKTTPPVLDSDGSFFLYSKLTVDKSRWQQGNVFSCSVMHEALHNRYTQKSLSLSP light: DIVMTQSPLSLPVTPGEPASISCRSSQSLPHSNRNTYLHWYQQKPGQAPRLLIYKVSNRFSGVPDRFSGSGSGTDFTLKISRVEAEDVGVYYCGQGTQVPYTFGQGTKLEIKRTVAAPSVFIFPPSDEQLKSGTASVVCLLNNFYPREAKVQWKVDNALQSGNSQESVTEQDSKDSTYSLSSTLTLSKADYEKHKVYACEVTHQGLSSPVTKSFNRGEC	3.71
GLS3000 V27cI (Kabat) L chain altered form, one-arm antibody with CE115HA000 (antibody, human IgG1, kappa, L234A L235A, N297A, name in Kabat numbering, one-arm antibody) heavy: QVQLVESGGGVVQPGRSLRLSCAASGFTFSNAWMHWVRQAPGKGLEWVAQIKAKSNNYATYYAESVKGRFTISRDDSKNSLYLQMNSLKTEDTAVYYCRYVHYGAYYGVDAWGQGTTVTVSSASTKGPSVFPLAPSSKSTSGGTAALGCLVKDYFPEPVTVSWNSGALTSGVHTFPAVLQSSGLYSLSSVVTVPSSSLGTQTYICNVNHKPSNTKVDKKVEPKSCDKTHTCPPCPAPEAAGGPSVFLFPPKPKDTLMISRTPEVTCVVVDVSHEDPEVKFNWYVDGVEVHNAKTKPREEQYASTYRVVSVLTVLHQDWLNGKEYKCKVSNKALPAPIEKTISKAKGQPREPQVYTLPPSRCELTKNQVSLSCAVKGFYPSDIAVEWESNGQPENNYKTTPPVLDSDGSFFLVSKLTVDKSRWQQGNVFSCSVMHEALHNHYTQKSLSLSPDYKDDDDK EPKSSDKTHTCPPCPAPELLGGPSVFLFPPKPKDTLMISRTPEVTCVVVDVSHEDPEVKFNWYVDGVEVHNAKTKPREEQYNSTYRVVSVLTVLHQDWLNGKEYKCKVSNKALPAPIEKTISKAKGQPREPQVCTLPPSRDELTKNQVSLWCLVKGFYPSDIAVEWESNGQPENNYKTTPPVLDSDGSFFLYSKLTVDKSRWQQGNVFSCSVMHEALHNRYTQKSLSLSP light: DIVMTQSPLSLPVTPGEPASISCRSSQSLIHSNRNTYLHWYQQKPGQAPRLLIYKVSNRFSGVPDRFSGSGSGTDFTLKISRVEAEDVGVYYCGQGTQVPYTFGQGTKLEIKRTVAAPSVFIFPPSDEQLKSGTASVVCLLNNFYPREAKVQWKVDNALQSGNSQESVTEQDSKDSTYSLSSTLTLSKADYEKHKVYACEVTHQGLSSPVTKSFNRGEC	1.03
GLS3000 V27cL (Kabat) L chain altered form, one-arm antibody with CE115HA000 (antibody, human IgG1, kappa, L234A L235A, N297A, name in Kabat numbering, one-arm antibody) heavy: QVQLVESGGGVVQPGRSLRLSCAASGFTFSNAWMHWVRQAPGKGLEWVAQIKAKSNNYATYYAESVKGRFTISRDDSKNSLYLQMNSLKTEDTAVYYCRYVHYGAYYGVDAWGQGTTVTVSSASTKGPSVFPLAPSSKSTSGGTAALGCLVKDYFPEPVTVSWNSGALTSGVHTFPAVLQSSGLYSLSSVVTVPSSSLGTQTYICNVNHKPSNTKVDKKVEPKSCDKTHTCPPCPAPEAAGGPSVFLFPPKPKDTLMISRTPEVTCVVVDVSHEDPEVKFNWYVDGVEVHNAKTKPREEQYASTYRVVSVLTVLHQDWLNGKEYKCKVSNKALPAPIEKTISKAKGQPREPQVYTLPPSRCELTKNQVSLSCAVKGFYPSDIAVEWESNGQPENNYKTTPPVLDSDGSFFLVSKLTVDKSRWQQGNVFSCSVMHEALHNHYTQKSLSLSPDYKDDDDK EPKSSDKTHTCPPCPAPELLGGPSVFLFPPKPKDTLMISRTPEVTCVVVDVSHEDPEVKFNWYVDGVEVHNAKTKPREEQYNSTYRVVSVLTVLHQDWLNGKEYKCKVSNKALPAPIEKTISKAKGQPREPQVCTLPPSRDELTKNQVSLWCLVKGFYPSDIAVEWESNGQPENNYKTTPPVLDSDGSFFLYSKLTVDKSRWQQGNVFSCSVMHEALHNRYTQKSLSLSP light: DIVMTQSPLSLPVTPGEPASISCRSSQSLLHSNRNTYLHWYQQKPGQAPRLLIYKVSNRFSGVPDRFSGSGSGTDFTLKISRVEAEDVGVYYCGQGTQVPYTFGQGTKLEIKRTVAAPSVFIFPPSDEQLKSGTASVVCLLNNFYPREAKVQWKVDNALQSGNSQESVTEQDSKDSTYSLSSTLTLSKADYEKHKVYACEVTHQGLSSPVTKSFNRGEC	0.81
GLS3000 V27cE (Kabat) L chain altered form, one-arm antibody with CE115HA000 (antibody, human IgG1, kappa, L234A L235A, N297A, name in Kabat numbering, one-arm antibody) heavy: QVQLVESGGGVVQPGRSLRLSCAASGFTFSNAWMHWVRQAPGKGLEWVAQIKAKSNNYATYYAESVKGRFTISRDDSKNSLYLQMNSLKTEDTAVYYCRYVHYGAYYGVDAWGQGTTVTVSSASTKGPSVFPLAPSSKSTSGGTAALGCLVKDYFPEPVTVSWNSGALTSGVHTFPAVLQSSGLYSLSSVVTVPSSSLGTQTYICNVNHKPSNTKVDKKVEPKSCDKTHTCPPCPAPEAAGGPSVFLFPPKPKDTLMISRTPEVTCVVVDVSHEDPEVKFNWYVDGVEVHNAKTKPREEQYASTYRVVSVLTVLHQDWLNGKEYKCKVSNKALPAPIEKTISKAKGQPREPQVYTLPPSRCELTKNQVSLSCAVKGFYPSDIAVEWESNGQPENNYKTTPPVLDSDGSFFLVSKLTVDKSRWQQGNVFSCSVMHEALHNHYTQKSLSLSPDYKDDDDK EPKSSDKTHTCPPCPAPELLGGPSVFLFPPKPKDTLMISRTPEVTCVVVDVSHEDPEVKFNWYVDGVEVHNAKTKPREEQYNSTYRVVSVLTVLHQDWLNGKEYKCKVSNKALPAPIEKTISKAKGQPREPQVCTLPPSRDELTKNQVSLWCLVKGFYPSDIAVEWESNGQPENNYKTTPPVLDSDGSFFLYSKLTVDKSRWQQGNVFSCSVMHEALHNRYTQKSLSLSP light: DIVMTQSPLSLPVTPGEPASISCRSSQSLEHSNRNTYLHWYQQKPGQAPRLLIYKVSNRFSGVPDRFSGSGSGTDFTLKISRVEAEDVGVYYCGQGTQVPYTFGQGTKLEIKRTVAAPSVFIFPPSDEQLKSGTASVVCLLNNFYPREAKVQWKVDNALQSGNSQESVTEQDSKDSTYSLSSTLTLSKADYEKHKVYACEVTHQGLSSPVTKSFNRGEC	1.1
